Results reported in the DeepSol protein solubility set.

Assay: soluble on expression in E. coli; label from the status in PepcDB or PDB records

Sequence | soluble on expression in E. coli
MESENIISAADKARILAEALPYIRRFSGSVAVIKYGGNAMTEPALKEGFARDVVLLKLVGIHPVIVHGGGPQINAMLEKVGKKGEFVQGMRVTDKEAMDIVEMVLGGHVNKEIVSMINTYGGHAVGVSGRDDHFIKAKKLLIDTPEQNGVDIGQVGTVESIDTGLVKGLIERGCIPVVAPVGVGEKGEAFNINADLVAGKLAEELNAEKLLMMTNIAGVMDKTGNLLTKLTPKRIDELIADGTLYGGMLPKIASAVEAAVNGVKATHIIDGRLPNALLLEIFTDAGIGSMILGGGEDA | not soluble
MESTSTTVPSIVVYVTVPNKEAGKRLAGSIISEKLAACVNIVPGIESVYWWEGKVQTDAEELLIIKTRESLLDALTEHVKANHEYDVPEVIALPIKGGNLKYLEWLKNSTRES | soluble
MESVRRGKLMKNKKIKFDVYLNGIAYHCIKCGFCCDAPTVTKKDLAKIAGYLKIPFDEVLKRYVRFFNGYIGELKEVGGKCIFLDKKTKKCKIYKVRPLICRLRPYSVQVRNGKLTLTYDIWFLRYCRGLYLGDGKVEDEYFKYAELVLKYLGFEEGVDEEEFKRAKERLLEESLKYRKKKDLEHHHHHH | soluble
METCDLLAFGAHPDDVEIGMGGTIAKYVRRGYRIVICDLTQAELSSNGTVDERQREAAEAARRLGVSERFNLGLPDRGLYVEEEAIRQIAAVIRRCRPRLVFAPYWEDRHPDHGRCARLVEEAVFSAGIRRYGAGELGDAHRVRAVYYYMINAFCRPHFLIDISETIDDKLDSLRAYESQFQKRPGSVDTPLTNGYIEMIESRERWFGQQIGAAYAEGFLTKTPIHLSNLFEEER | not soluble
METLGVQTNSELREELNRLKEENARLKKELNQHQVIVNNTLDAIFICDNEMRIVQANEATERMLQVDSEDLKKRSVLDFLFSIPKDELNLSVKKFFKKGFLWKEVPIRLDCGATKYIEFLAKRGIGEDFFFVVMRDIS | not soluble
METLIAISRWLAKQHVVTWCVQQEGELWCANAFYLFDAQKVAFYILTEEKTRHAQMSGPQAAVAGTVNGQPKTVALIRGVQFKGEIRRLEGEESDLARKAYNRRFPVARMLSAPVWEIRLDEIKFTDNTLGFGKKMIWLRDSGTEQA | soluble
METRREERIGQLLQELKRSDKLHLKDAAALLGVSEMTIRRDLNNHSAPVVLLGGYIVLEPRSASHYLLSDQKSRLVEEKRRAAKLAATLVEPDQTLFFDCGTTTPWIIEAIDNEIPFTAVCYSLNTFLALKEKPHCRAFLCGGEFHASNAIFKPIDFQQTLNNFCPDIAFYSAAGVHVSKGATCFNLEELPVKHWAMSMAQKHVLVVDHSKFGKVRPARMGDLKRFDIVVSDCCPEDEYVKYAQTQRIKLMYLEHHHHHH | soluble
METYAVFGNPIAHSKSPFIHQQFAQQLNIEHPYGRVLAPINDFINTLNAFFSAGGKGANVTVPFKEEAFARADELTERAALAGAVNTLMRLEDGRLLGDNTDGVGLLSDLERLSFIRPGLRILLIGAGGASRGVLLPLLSLDCAVTITNRTVSRAEELAKLFAHTGSIQALSMDELEGHEFDLIINATSSGISGDIPAIPSSLIHPGIYCYDMFYQKGKTPFLAWCEQRGSKRNADGLGMLVAQAAHAFLLWHGVLPDVEPVIKQLQEELSALEHHHHHH | soluble
METYLEIETLIKRIFNSFRHEVEAVLDKRLSGSEYRVLSLISSGLTKTSDLAKTLDVSASHITAITDTLVEEKLITRHRSEVDRRIIELKLTSNAEEFVKEIDKKKKEMIVKRFAVFSEYEQAEFRKLLKKLADGSQSNK | not soluble
MEVDEDIELQKHQEQQSRKLQRFSEDNTGLMRNWNNPSSRIIRVSRASGGKDRHSKVLTSKGLRDRRIRLSVATAIQFYDLQDRLGFDQPSKAVEWLINAASDSITDLPLLNTNFDHLDQNQNQTKSACSSGTSESSLLSLSRTEIRGKARERARERTAKDRDKDLQNAHSSFTQLLTGGFDQQPSNRNWTGGSDCFNPVQLQIPNSSSQEPMNHPFSFVPDYNFGISSSSSAINGGYSSRGTLQSNSQSLFLNNNNNITQRSSISSSSSSSSPMDSQSISFFMATPPPLDHHNHQLPETFDGRLYLYYGEGNRSSDDKAKERR | not soluble
MEVKALAHAKNDSVAVATDDLKEGEEIQVAFLDNNEKTKITTAEVIPLGHKISLKDIKKGENVIEYGEVIGAATKDIKRGEHVHIHNIKSLRW | not soluble
